From publication PMC9834252 (2023)

Target: UbcH7-Ub (Homo sapiens, UniProt P68036)
Assay: ITC

UbcH7-Ub, sequence (P68036 whole entry): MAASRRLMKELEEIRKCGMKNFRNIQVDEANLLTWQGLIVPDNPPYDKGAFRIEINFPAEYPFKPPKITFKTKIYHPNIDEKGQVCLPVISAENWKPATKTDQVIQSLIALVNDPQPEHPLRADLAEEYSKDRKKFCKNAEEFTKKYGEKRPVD

B1: HOIL-1 (protein)
chain: MDEKTKKAEEMALSLTRAVAGGDEQVAMKCAIWLAEQRVPLSVQLKPEVSPTQDIRLWVSVEDAQMHTVTIWLTVRPDMTVASLKDMVFLDYGFPPVLQQWVIGQRLARDQETLHSHGVRQNGDSAYLYLLSARNTSLNPQELQRERQLRMLEDLGFKDLTLQPRGPLEPGPPKPGVPQEPGRGQPDAVPEPPPVGWQCPGCTFINKPTRPGCEMCCRARPEAYQVPASYQPDEEERARLAGEEEALRQYQQRKQQQQEGNYLQHVQLDQRSLVLNTEPAECPVCYSVLAPGEAVVLRECLHTFCRECLQGTIRNSQEAEVSCPFIDNTYSCSGKLLEREIKALLTPEDYQRFLDLGISIAENRSAFSYHCKTPDCKGWCFFEDDVNEFTCPVCFHVNCLLCKAIHEQMNCKEYQEDLALRAQNDVAARQTTEMLKVMLQQGEAMRCPQCQIVVQKKDGCDWIRCTVCHTEICWVTKGPRWGPGGPGDTSGGCRCRVNGIPCHPSCQNCH
For B1, the Kd was 5.3 µM.
